Experimental data reported in US20230340151A1 (Pfizer, published 2023).
Numbering of substitutions follows the chain as printed. Read-outs that look alike come from different tables or passages of the source. Values belong to the binder of their own block, whether it stands above or below them.

What was measured:
[1] = biological target: T1, Murine GUCY2C-ECD cleaved (mouse, UniProt Q3UWA6 20-433); assay: SPR, GUCY2c directly immobilized, 25 C
T1 sequence: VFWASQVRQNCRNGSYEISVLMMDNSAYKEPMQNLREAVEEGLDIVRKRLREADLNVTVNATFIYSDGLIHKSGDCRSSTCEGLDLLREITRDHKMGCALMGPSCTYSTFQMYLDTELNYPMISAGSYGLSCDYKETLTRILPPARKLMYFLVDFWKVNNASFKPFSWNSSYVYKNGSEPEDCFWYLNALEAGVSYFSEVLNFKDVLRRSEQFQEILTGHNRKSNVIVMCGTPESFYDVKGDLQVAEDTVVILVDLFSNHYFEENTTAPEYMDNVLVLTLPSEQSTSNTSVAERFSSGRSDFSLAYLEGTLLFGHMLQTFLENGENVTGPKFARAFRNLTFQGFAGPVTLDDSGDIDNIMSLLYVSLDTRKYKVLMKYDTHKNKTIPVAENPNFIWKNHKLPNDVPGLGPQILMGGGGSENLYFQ

[2] = biological target: T1, Murine GUCY2C-ECD cleaved; assay: SPR, anti-human IgG capture, 25 C
Human GUCY2C ECD-muIgG2a = biological target: T2, Human GUCY2C ECD-muIgG2a (human); assay: huCD3-huGUCY2C sandwich ELISA (CD3 coated)
T2 construct: also called human GUCY2c ECD-mouse IgG2a Fc fusion protein; huGUCY2c-mIgG2a
T2 sequence (chain, as listed by the source limits assumed): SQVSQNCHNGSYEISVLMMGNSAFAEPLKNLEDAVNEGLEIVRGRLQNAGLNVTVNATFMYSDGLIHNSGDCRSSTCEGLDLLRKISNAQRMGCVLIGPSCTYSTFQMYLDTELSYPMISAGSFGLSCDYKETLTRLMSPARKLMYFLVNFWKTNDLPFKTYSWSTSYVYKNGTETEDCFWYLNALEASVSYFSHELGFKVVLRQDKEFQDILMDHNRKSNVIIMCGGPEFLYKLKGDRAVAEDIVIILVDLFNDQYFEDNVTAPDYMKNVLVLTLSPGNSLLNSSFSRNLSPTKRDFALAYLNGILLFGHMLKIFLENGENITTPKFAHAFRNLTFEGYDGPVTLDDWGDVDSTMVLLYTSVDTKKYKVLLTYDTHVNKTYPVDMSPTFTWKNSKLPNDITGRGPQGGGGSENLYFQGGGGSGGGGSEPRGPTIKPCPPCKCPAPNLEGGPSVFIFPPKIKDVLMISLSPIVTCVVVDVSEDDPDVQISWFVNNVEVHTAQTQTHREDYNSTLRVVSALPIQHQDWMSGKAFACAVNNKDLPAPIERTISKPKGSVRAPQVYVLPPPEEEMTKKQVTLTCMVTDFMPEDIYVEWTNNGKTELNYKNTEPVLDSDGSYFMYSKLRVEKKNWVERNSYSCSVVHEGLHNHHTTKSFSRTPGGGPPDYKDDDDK

[3] = biological target: T3, Human GUCY2C full length (SEQ ID NO: 224), recombinant protein (human, UniProt P25092 24-430, limits assumed); assay: SPR, GUCY2c directly immobilized, 25 C
T3 construct: also called huGUCY2C; biotinylated human GUCY2c
T3 sequence (P25092 24-430 F281L limits assumed): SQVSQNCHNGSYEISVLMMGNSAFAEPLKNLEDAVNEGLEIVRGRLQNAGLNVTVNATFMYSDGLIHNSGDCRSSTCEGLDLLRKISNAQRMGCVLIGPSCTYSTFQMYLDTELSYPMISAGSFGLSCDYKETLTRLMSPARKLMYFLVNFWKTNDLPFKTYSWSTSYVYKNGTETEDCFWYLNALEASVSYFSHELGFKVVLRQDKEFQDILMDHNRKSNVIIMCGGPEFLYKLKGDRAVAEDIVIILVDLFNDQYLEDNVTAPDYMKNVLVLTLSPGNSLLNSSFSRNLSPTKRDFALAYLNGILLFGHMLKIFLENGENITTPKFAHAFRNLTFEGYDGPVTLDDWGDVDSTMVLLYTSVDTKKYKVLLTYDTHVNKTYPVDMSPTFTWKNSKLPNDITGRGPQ

[4] = biological target: T4, Cynomolgus GUCY2C-ECD Cleaved (cynomolgus, UniProt P25092 24-430 (human entry)); assay: SPR, anti-human IgG capture, 25 C
T4 construct: also called CyGUCY2C
T4 chain: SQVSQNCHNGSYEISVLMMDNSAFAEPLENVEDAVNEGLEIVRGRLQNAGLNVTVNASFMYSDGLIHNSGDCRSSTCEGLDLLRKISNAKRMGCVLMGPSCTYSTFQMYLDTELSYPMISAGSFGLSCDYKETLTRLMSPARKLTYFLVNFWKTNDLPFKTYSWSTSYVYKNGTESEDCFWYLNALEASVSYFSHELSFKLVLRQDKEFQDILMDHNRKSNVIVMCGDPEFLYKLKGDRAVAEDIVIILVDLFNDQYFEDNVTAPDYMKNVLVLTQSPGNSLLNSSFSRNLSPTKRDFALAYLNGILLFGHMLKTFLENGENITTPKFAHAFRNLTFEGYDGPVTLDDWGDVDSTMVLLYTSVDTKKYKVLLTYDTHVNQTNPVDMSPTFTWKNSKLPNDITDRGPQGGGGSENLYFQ

[5] = biological target: T5, Human GUCY2c on tumor cells (T84, HT55) (human, UniProt P25092 24-1073); assay: cell-based or functional assay
T5 sequence (P25092 24-1073 limits assumed): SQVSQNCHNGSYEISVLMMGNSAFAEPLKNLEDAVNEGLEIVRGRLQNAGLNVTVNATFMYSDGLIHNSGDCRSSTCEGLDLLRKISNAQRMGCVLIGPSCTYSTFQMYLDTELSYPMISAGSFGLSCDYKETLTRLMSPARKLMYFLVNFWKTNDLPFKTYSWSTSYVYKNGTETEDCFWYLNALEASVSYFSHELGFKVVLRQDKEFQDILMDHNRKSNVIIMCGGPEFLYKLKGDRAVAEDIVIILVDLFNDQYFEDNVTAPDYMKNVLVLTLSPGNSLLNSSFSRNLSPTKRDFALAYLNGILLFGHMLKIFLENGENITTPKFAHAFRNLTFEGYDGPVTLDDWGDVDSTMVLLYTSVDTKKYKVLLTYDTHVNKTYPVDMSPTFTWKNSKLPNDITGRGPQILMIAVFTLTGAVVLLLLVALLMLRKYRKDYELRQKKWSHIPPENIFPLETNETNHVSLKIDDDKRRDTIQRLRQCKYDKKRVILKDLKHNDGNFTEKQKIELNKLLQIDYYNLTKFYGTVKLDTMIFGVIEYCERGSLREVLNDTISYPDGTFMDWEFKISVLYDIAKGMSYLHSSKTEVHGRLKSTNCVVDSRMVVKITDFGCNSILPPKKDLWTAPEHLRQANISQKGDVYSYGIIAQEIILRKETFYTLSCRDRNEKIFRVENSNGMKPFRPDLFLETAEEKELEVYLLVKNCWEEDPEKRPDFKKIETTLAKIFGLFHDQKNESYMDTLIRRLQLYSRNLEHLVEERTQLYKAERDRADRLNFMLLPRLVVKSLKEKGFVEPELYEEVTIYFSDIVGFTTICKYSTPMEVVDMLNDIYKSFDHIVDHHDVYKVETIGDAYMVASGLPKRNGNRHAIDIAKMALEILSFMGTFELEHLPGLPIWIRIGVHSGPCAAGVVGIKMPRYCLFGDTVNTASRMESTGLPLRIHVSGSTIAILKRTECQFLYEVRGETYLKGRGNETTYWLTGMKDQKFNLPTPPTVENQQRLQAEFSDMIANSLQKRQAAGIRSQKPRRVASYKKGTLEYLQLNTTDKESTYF

[6] = biological target: T5, Human GUCY2c on tumor cells (T84, HT55); assay: cell-based or functional assay; remark: listed apart in the source
Human CD3 epsilon-delta [7] = biological target: T6, Human CD3 epsilon-delta (human); assay: SPR, anti-human IgG capture, 25 C
T6 construct: Single-chain epsilon-linker-delta with His6; also called huCD3
T6 chain: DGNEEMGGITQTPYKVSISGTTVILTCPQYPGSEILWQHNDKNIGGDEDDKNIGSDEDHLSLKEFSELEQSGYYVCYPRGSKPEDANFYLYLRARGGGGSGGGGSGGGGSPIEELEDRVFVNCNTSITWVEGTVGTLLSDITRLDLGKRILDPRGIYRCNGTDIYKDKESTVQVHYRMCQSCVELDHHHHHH

[8] = biological target: T7, Cynomolgus CD3 epsilon-delta (cynomolgus); assay: SPR, printed anti-His capture, 25 C (Table 33D)
T7 chain: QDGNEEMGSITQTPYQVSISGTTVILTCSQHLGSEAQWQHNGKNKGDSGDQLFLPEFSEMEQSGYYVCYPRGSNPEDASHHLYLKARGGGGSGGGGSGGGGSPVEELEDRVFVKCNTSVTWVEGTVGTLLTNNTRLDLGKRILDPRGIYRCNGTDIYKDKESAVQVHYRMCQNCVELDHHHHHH

[9] = biological target: T3, Human GUCY2C full length (SEQ ID NO: …); assay: SPR, anti-human IgG capture, 25 C
[10] = biological target: Human CD3 on naive human T cells (human, UniProt P07766 23-207); assay: cell-based or functional assay
Human CD3 epsilon-delta [11] = biological target: T6, Human CD3 epsilon-delta; assay: SPR, recombinant human CD3

Kd [1]: 42.3 nM | koff [1]: 0.00515 s⁻¹ | kon [1]: 122000 M⁻¹ s⁻¹ | Kd [2]: 317 nM | koff [2]: 0.00336 s⁻¹ | kon [2]: 10600 M⁻¹ s⁻¹ | EC50 (Human GUCY2C ECD-muIgG2a): 0.0799 nM | Kd [3]: 37.9 nM | koff [3]: 0.00364 s⁻¹ | kon [3]: 96200 M⁻¹ s⁻¹ | Kd [4]: 91.2 nM | koff [4]: 0.00234 s⁻¹ | kon [4]: 26100 M⁻¹ s⁻¹ | Kd (Human CD3 epsilon-delta [7]): 3.73 nM | koff (Human CD3 epsilon-delta [7]): 0.00129 s⁻¹ | kon (Human CD3 epsilon-delta [7]): 347000 M⁻¹ s⁻¹ | Kd [8]: 4.71 nM | koff [8]: 0.00207 s⁻¹ | kon [8]: 440000 M⁻¹ s⁻¹ | Kd [9]: 37.9 nM | koff [9]: 0.00364 s⁻¹ | kon [9]: 96200 M⁻¹ s⁻¹
B1: GUCY2C-0240 (bispecific antibody)
chain 1: DIQLTQSPSSLSASVGDRVTITCRASESVDNYGISFMNWFQQKPGKAPKLLIYAASNPGSGVPSRFSGSGSGTDFTLTISSLQPEDFATYYCQQSKEVPYTFGQGTKLEIKGGGSGGGGEVQLVESGGGLVQPGGSLRLSCAASGFTFSDYYMTWVRQAPGKGLEWVAFIRNRARGYTSDHNPSVKGRFTISRDNAKNSLYLQMNSLRAEDTAVYYCARDRPSYYVLDYWGQGTTVTVSSGCPPCPAPEAAGAPSVFLFPPKPKDTLMISRTPEVTCVVVDVSHEDPEVKFNWYVDGVEVHNAKTKPREEQYNSTYRVVSVLTVLHQDWLNGKEYKCKVSNKALPAPIEKTISKAKGQPREPQVCTLPPSREEMTKNQVSLWCLVKGFYPSDIAVEWESNGQPENNYKTTPPVLDSDGSFFLYSKLTVDKSRWQQGNVFSCSVMHEALHNHYTQKSLSLSPG
chain 2: DIVMTQSPDSLAVSLGERATINCKSSQSLFNVRSRKNYLAWYQQKPGQPPKLLISWASTRESGVPDRFSGSGSGTDFTLTISSLQAEDVAVYYCKQSYDLFTFGSGTKLEIKGGGSGGGGEVQLVESGGGLVQPGGSLRLSCAASGYTFTTYWMQWVRQAPGKGLEWIGAIYPGDGMTTYTQKFKDRFTISADKAKNSAYLQMNSLRAEDTAVYYCVRKGMDYWGQGTLVTVSSGCPPCPAPEAAGAPSVFLFPPKPKDTLMISRTPEVTCVVVDVSHEDPEVKFNWYVDGVEVHNAKTKPREEQYNSTYRVVSVLTVLHQDWLNGKEYKCKVSNKALPAPIEKTISKAKGQPREPQVYTLPPCREEMTKNQVSLSCAVKGFYPSDIAVEWESNGQPENNYKTTPPVLDSDGSFFLVSKLTVDKSRWQQGNVFSCSVMHEALHNHYTQKSLSLSPG
T84 tumor cell EC50 (T cell cytotoxicity, E:T 5:1) [5]: 0.53 nM | T84 tumor cell EC50 (T cell cytotoxicity, E:T 5:1) [6]: 0.53 nM

Kd (Human CD3 epsilon-delta [11]): 72 nM
B2: GUCY2C-1679 (bispecific antibody)
chain 1: DIQLTQSPSSLSASVGDRVTITCRASESVDYYGSSLLQWYQQKPGKAPKLLIYAASKLASGVPSRFSGSGSGTDFTLTISSLQPEDFATYYCQQTRKAYTFGQGTKLEIKGGGSGGGGEVQLVESGGGLVQPGGSLRLSCAASGFTFSDYYMTWVRQAPGKGLEWVAFIRNQARGYTSDHNPSVKGRFTISRDNAKNSLYLQMNSLRAEDTAVYYCARDRPSYYVLDYWGQGTTVTVSSGCPPCPAPEAAGAPSVFLFPPKPKDTLMISRTPEVTCVVVDVSHEDPEVKFNWYVDGVEVHNAKTKPREEQYNSTYRVVSVLTVLHQDWLNGKEYKCKVSNKALPAPIEKTISKAKGQPREPQVCTLPPSREEMTKNQVSLWCLVKGFYPSDIAVEWESNGQPENNYKTTPPVLDSDGSFFLYSKLTVDKSRWQQGNVFSCSVMHEALHNHYTQKSLSLSPG
chain 2: DIQMTQSPSSLSASVGDRVTITCTSSQSLFNVRSGKNYLAWYQQKPGKAPKLLIYWASDRESGVPSRFSGSGSGTDFTLTISSLQPEDFATYYCKQSYDLFTFGGGTKVEIKGGGGSGGGGEVQLVESGGGLVQPGGSLRLSCAASGFTFSSYWMHWVRQAPGKGLEWIGEIKPSNELTNVHEKFKDRFTISVDKAKNSAYLQMNSLRAEDTAVYYCTRTITTTEGYWFFDVWGQGTLVTVSSGCPPCPAPEAAGAPSVFLFPPKPKDTLMISRTPEVTCVVVDVSHEDPEVKFNWYVDGVEVHNAKTKPREEQYNSTYRVVSVLTVLHQDWLNGKEYKCKVSNKALPAPIEKTISKAKGQPREPQVYTLPPCREEMTKNQVSLSCAVKGFYPSDIAVEWESNGQPENNYKTTPPVLDSDGSFFLVSKLTVDKSRWQQGNVFSCSVMHEALHNHYTQKSLSLSPG
In vitro Cytotoxicity (nM), T-cell retargeting assay [10]: 0.194 nM

EC50 (Human GUCY2C ECD-muIgG2a): 76.9 nM
B3: GUCY2C-0250 (bispecific antibody)
chain 1: B2 chain 1 with S34T, L37M, K57N, L58V, A59E, A98V, Q172R
chain 2: DIQMTQSPSSLSASVGDRVTITCTSSQSLFNVRSRKNYLAWYQQKPGKAPKLLIYWASTRESGVPSRFSGSGSGTDFTLTISSLQPEDFATYYCKQSYDLFTFGGGTKVEIKGGGSGGGGEVQLVESGGGLVQPGGSLRLSCAASGYTFTSYWMHWVRQAPGKGLEWIGEIKPSNGLTNYIEKFKNRFTISVDKAKNSAYLQMNSLRAEDTAVYYCTRTITTTEGYWFFDVWGQGTLVTVSSGCPPCPAPEAAGAPSVFLFPPKPKDTLMISRTPEVTCVVVDVSHEDPEVKFNWYVDGVEVHNAKTKPREEQYNSTYRVVSVLTVLHQDWLNGKEYKCKVSNKALPAPIEKTISKAKGQPREPQVYTLPPCREEMTKNQVSLSCAVKGFYPSDIAVEWESNGQPENNYKTTPPVLDSDGSFFLVSKLTVDKSRWQQGNVFSCSVMHEALHNHYTQKSLSLSPG

Kd (Human CD3 epsilon-delta [11]): 63.5 nM
B4: GUCY2C-1678 (bispecific antibody)
chain 1: B2 chain 1
chain 2: B2 chain 2 with S26D
In vitro Cytotoxicity (nM), T-cell retargeting assay [10]: 0.247 nM

Kd (Human CD3 epsilon-delta [11]): 78.6 nM
B5: GUCY2C-1680 (bispecific antibody)
chain 1: B2 chain 1
chain 2: B2 chain 2 with Q27E
In vitro Cytotoxicity (nM), T-cell retargeting assay [10]: 0.385 nM
